Experimental findings from paper PMC9727766 (bioRxiv, 2022) are described below.

Experiment [1] deals with SARS-CoV-2 S protein, C-terminally truncated, Omicron BA.1, on 293T cells (SARS-CoV-2 Omicron BA.1 (B.1.1.529), …, strain). Description: flow cytometry on cells. In general terms: In flow cytometry, cells or beads pass a laser one at a time.
The target in experiment [2] is SARS-CoV-2 S protein, C-terminally truncated, Omicron BA.4/BA.5, on 293T cells (SARS-CoV-2 Omicron BA.4/BA.5, strain). Nature of the experiment: flow cytometry on cells.

B1: fp.006 monoclonal antibody (IgG) (antibody, V domains shown)
VH: EVQLVESGGGVVQPGGSLRLSCAASGFNFNNYALHWVRQAPGKGLEWVAIISYEARNKKYGVSVMGRFSISRDNSKSIMYLEMNSLRVEDTGVYYCARDLFLSDYDRSGYDPTRGGFDHWGQGTLVTVSS
VL: EIVMTQSPATLSVSPGERATLSCRASQSVSSSLAWYQHRFGQAPRLLISGASTRATGIPGRFSGSGSGTEFTLTISSLQSEDVAVYYCQQYGDWPLVTFGGGTKVEIK
As to B1, the results for the “fold increase of binding with soluble ACE2” value in experiment [1] and in experiment [2] were 5.3 fold and 8.2 fold, respectively.
